From patent US20130217572A1, “SPECIFIC DELIVERY OF AGROCHEMICALS” (VRIJE UNIVERSITEIT BRUSSEL, priority 2010, published 2013)

B1: VHH 3E6 (VHH)
VHH: QVQLQESGGGLVQPGGTLSLSCAASGFNVRWYGMGWFRQAPGKEREGVACISALQETTAYADSVKGRFTLSRDNPKNTLSLQMNNLQPEDTGVYYCATTDCDDSSRMTYTSYLGQGTQVTVSS
notes: also called Monovalent VHH 3E6

How the values were obtained:
potato lectin (Sigma) [1] = target: T1, potato lectin (Sigma) (potato, UniProt Q9S8M0 23-323); assay: microcapsule retention; G: amine capsules, BS3 one-step, 1 ug VHH/cm2; potato lectin coat 1 ug/ml; 10% coverage
T1 construct: Bought glycoprotein, coated on ELISA plates
T1 sequence (looked up): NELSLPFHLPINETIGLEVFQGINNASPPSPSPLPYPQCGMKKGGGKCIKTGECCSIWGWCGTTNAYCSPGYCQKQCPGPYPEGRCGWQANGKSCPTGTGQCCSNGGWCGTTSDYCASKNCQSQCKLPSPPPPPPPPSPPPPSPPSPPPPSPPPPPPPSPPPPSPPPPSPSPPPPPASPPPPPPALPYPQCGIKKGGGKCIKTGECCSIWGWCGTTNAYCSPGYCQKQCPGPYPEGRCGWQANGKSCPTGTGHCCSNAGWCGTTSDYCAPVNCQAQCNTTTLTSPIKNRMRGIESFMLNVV

potato lectin (Sigma) [2] = target: T1, potato lectin (Sigma); assay: microcapsule retention; G: amine capsules, BS3 one-step, 1 ug VHH/cm2; potato lectin coat 1 ug/ml; 100% coverage
potato lectin (Sigma) [3] = target: T1, potato lectin (Sigma); assay: microcapsule retention; K: amine capsules, BS3 two-step, 1 ug VHH/cm2; potato lectin coat 10 ug/ml; 10% coverage
potato lectin (Sigma) [4] = target: T1, potato lectin (Sigma); assay: microcapsule retention; K: amine capsules, BS3 two-step, 1 ug VHH/cm2; potato lectin coat 1 ug/ml; 100% coverage
potato lectin (Sigma) [5] = target: T1, potato lectin (Sigma); assay: microcapsule retention; D: carboxyl capsules, EDC/Sulfo-NHS, 0.1 ug VHH/cm2; potato lectin coat 1 ug/ml; 10% coverage
potato lectin (Sigma) [6] = target: T1, potato lectin (Sigma); assay: microcapsule retention; L: amine capsules, BS3 two-step, 0.1 ug VHH/cm2; potato lectin coat 100 ug/ml; 100% coverage
potato lectin (Sigma) [7] = target: T1, potato lectin (Sigma); assay: microcapsule retention; H: amine capsules, BS3 one-step, 0.1 ug VHH/cm2; potato lectin coat 100 ug/ml; 100% coverage
potato lectin (Sigma) [8] = target: T1, potato lectin (Sigma); assay: microcapsule retention; C: carboxyl capsules, EDC/Sulfo-NHS, 1 ug VHH/cm2; potato lectin coat 10 ug/ml; 100% coverage
potato lectin (Sigma) [9] = target: T1, potato lectin (Sigma); assay: microcapsule retention; G: amine capsules, BS3 one-step, 1 ug VHH/cm2; potato lectin coat 100 ug/ml; 10% coverage
potato lectin (Sigma) [10] = target: T1, potato lectin (Sigma); assay: microcapsule retention; L: amine capsules, BS3 two-step, 0.1 ug VHH/cm2; potato lectin coat 1 ug/ml; 100% coverage
potato lectin (Sigma) [11] = target: T1, potato lectin (Sigma); assay: microcapsule retention; H: amine capsules, BS3 one-step, 0.1 ug VHH/cm2; potato lectin coat 1 ug/ml; 100% coverage
potato lectin (Sigma) [12] = target: T1, potato lectin (Sigma); assay: microcapsule retention; K: amine capsules, BS3 two-step, 1 ug VHH/cm2; potato lectin coat 100 ug/ml; 10% coverage
potato leaf discs = assay: VHH binding at different pH; design: species or system potato (variety Désirée); details: 5 μg/ml; whole range tested from pH 2 to pH 11
Method: In order to test applicability of VHH as binders for greenhouse or field applications where binding supposedly may occur at pH-values, deviating strongly from physiological conditions in which antibodies naturally bind their targets, a leaf dip VHH binding experiment was carried out in a series of solutions with different pH. The following solutions were prepared: 50 mM glycine pH 2.0, 50 mM sodium acetate pH 4.0, 50 mm sodium carbonate pH 9.6, and 10 mM sodium hydroxide pH 11.0. ø 8 mm potato leaf discs (variety Désirée) were cut using a puncher tool. The leaf discs were first equilibrated to the different pH by washing three times with solutions at different pH. Hexahistidine-tagged VHH were diluted to 5 μg/ml in solutions with different pH, added to the corresponding equilibrated leaf discs, and binding of VHH was allowed for 1 hour. After incubation with VHH, leaf discs were washed three times with solutions at the corresponding different pH. After that, all were washed two times with PBS to equilibrate leaf discs to PBS. Bound VHH were detected by incubation with monoclonal mouse anti-histidine antibodies directly conjugated with Alexa-488 fluorescent dye (Abd Serotec) in PBS for 1 hour. Unbound anti-histidine antibodies were removed by washing five times with PBS. Leaf discs were analyzed for bound VHH with microscopy.

[13] = test system: intact living potato pot plants; assay: VHH binding to intact living plants; design: species or system potato (variety Désirée); details: leaves attached to potato pot plant submerged in VHH solution in PBS, 1 hour
Method: Binding of VHH to intact living plants was investigated on potato pot plants (variety Désirée). Compound leaves of intact living plants were submersed in solutions of hexahistidine-tagged VHH in PBS, or PBS alone for control conditions, leaving the compound leaves attached to the plants. VHH were allowed to bind for 1 hour. Next, the compound leaves still attached to the plants were washed five times in PBS in Erlenmeyer flasks. Different leaves and petiole sections were sampled. Bound VHH were detected by incubation with monoclonal mouse anti-histidine antibodies directly conjugated with Alexa-488 fluorescent dye (Abd Serotec) in PBS for 1 hour. Unbound anti-histidine antibodies were removed by washing five times with PBS. Whole leaves, leaf discs, or petiole sections were analyzed for bound VHH with microscopy.

unrelated antigens = assay: VHH-coupled Uvitex microcapsules retained on wells coated with unrelated antigen; 100% surface coverage

Molecule | microcapsule counts (microcapsules) (potato lectin (Sigma) [1]) | microcapsule counts (microcapsules) (potato lectin (Sigma) [2]) | microcapsule counts (microcapsules) (potato lectin (Sigma) [3]) | microcapsule counts (microcapsules) (potato lectin (Sigma) [4]) | microcapsule counts (microcapsules) (potato lectin (Sigma) [5]) | microcapsule counts (microcapsules) (potato lectin (Sigma) [6]) | microcapsule counts (microcapsules) (potato lectin (Sigma) [7]) | microcapsule counts (microcapsules) (potato lectin (Sigma) [8]) | microcapsule counts (microcapsules) (potato lectin (Sigma) [9]) | microcapsule counts (microcapsules) (potato lectin (Sigma) [10]) | microcapsule counts (microcapsules) (potato lectin (Sigma) [11]) | microcapsule counts (microcapsules) (potato lectin (Sigma) [12]) | binding to leaf discs at different pH (potato leaf discs) | binding to an intact living plant [13] | surface area of bound microcapsules (unrelated antigens)
Control VHH | 7 | 46 | 197 | 617 | 64 | 1110 | 622 | 265 | 36 | 860 | 173 | 285 | – | – | –
B1 | – | – | – | – | – | – | – | – | – | – | – | – | showed detectable binding | binding leaf surface, stomata, glandular trichomes, and leaf hairs | 69.5
